Data: paper PMC9780360, “A conformation-specific nanobody targeting the nicotinamide mononucleotide-activated state of SARM1” (Nature Communications, 2022)

Experiments:
[1] = target: the molecule itself; experiment: cryo-EM structure; 3 mg/mL dtSARM1 with 100 uM NMN in 100 mM Tris pH 8.0, 150 mM NaCl, 1 mM EDTA on ice for 10 min, then Nb-C6 at 1:1 molar ratio, 30 min on ice
[2] = target: T1, dtSARM1, the truncated form of SARM1 without the N-terminal mitochondrial signal, fused with a twin-Strep-tag … (human, UniProt Q6SZW1 28-724); experiment: SPR; 100 uM NMN, two-state fit kd1
T1 chain: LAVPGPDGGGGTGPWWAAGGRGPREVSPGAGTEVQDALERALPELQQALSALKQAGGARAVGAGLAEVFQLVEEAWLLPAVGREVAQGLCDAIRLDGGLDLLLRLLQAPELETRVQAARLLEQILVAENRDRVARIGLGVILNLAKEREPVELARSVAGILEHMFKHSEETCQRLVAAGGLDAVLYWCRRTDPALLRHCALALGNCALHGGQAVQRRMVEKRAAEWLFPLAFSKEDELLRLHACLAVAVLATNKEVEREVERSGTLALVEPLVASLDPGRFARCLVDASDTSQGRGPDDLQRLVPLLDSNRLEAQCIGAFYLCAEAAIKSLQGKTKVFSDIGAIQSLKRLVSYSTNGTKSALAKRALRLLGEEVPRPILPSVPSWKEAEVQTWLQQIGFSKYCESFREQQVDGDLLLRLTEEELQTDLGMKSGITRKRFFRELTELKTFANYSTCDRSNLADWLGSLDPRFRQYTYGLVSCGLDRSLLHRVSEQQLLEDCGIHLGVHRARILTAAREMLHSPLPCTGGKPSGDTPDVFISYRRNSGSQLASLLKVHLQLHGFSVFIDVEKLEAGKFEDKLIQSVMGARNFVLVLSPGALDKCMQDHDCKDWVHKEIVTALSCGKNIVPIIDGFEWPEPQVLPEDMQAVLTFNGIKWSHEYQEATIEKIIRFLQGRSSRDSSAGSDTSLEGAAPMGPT

[3] = target: T1, dtSARM1, the truncated form of SARM1 …; experiment: SPR; 100 uM NMN, two-state fit kd2
Nanobody C6 (alpaca) = experiment: cryo-EM structure; 3 mg/mL dtSARM1 with 100 uM NMN in 100 mM Tris pH 8.0, 150 mM NaCl, 1 mM EDTA on ice for 10 min, then Nb-C6 at 1:1 molar ratio, 30 min on ice
[4] = target: T2, dtSARM1, the truncated form of SARM1 without the N-terminal mitochondrial signal, fused with a twin-Strep-tag … (human, UniProt Q6SZW1); experiment: as above; settings: both partners purified
T2 construct: also called recombinant SARM1; SARM1^NMN (loaded with NMN); source: Expi293F stably expressing dtSARM1 (lentiviral); in lysate, or purified (StrepTactin resin, Superdex 200 gel filtration); not shown: twin-Strep, N-terminal, kept; Flag, N-terminal, kept

[5] = target: T2, dtSARM1, the truncated form of SARM1 …; experiment: SPR; BIAcore 8K; dtSARM1 captured (about 500 RU) on a CM5 chip coated with Strep-Tactin XT; Nb-C6 1.56-400 nM in NMN/HBS-EP (100 uM NMN, 10 mM HEPES, 150 mM NaCl, 1 mg/mL BSA, 3 mM EDTA, 0.05% P20); 360 s association, 540 s dissociation; two-state kinetics model; settings: both partners purified

B1: dtSARM1, the truncated form of SARM1 without the N-terminal mitochondrial signal, fused with a twin-Strep-tag and a Flag-tag attached to the N-terminus (enzyme, human, UniProt Q6SZW1 28-724, looked up)
chain: T1 chain
notes: also called recombinant SARM1; SARM1^NMN (loaded with NMN); source: Expi293F stably expressing dtSARM1 (lentiviral); in lysate, or purified (StrepTactin resin, Superdex 200 gel filtration); not shown: twin-Strep, N-terminal, kept; Flag, N-terminal, kept
stoichiometry N [1]: 8

B2: Nanobody C6 (VHH)
VHH: AVQLVESGGGLVQPGGSLRLSCAASVSISRIYVMAWYRQAPGKQREVVAVIRYDGTTNYPDSVKGRFTISRDNAKNTVYLQMNSLKPEDTAVYYCNANVETWGQGTQVTVSS
notes: Subcloned into pET22b; alpaca nanobody from an immune phage display library; also called Nb-C6; source: E. coli C43(DE3), purified (Ni-Excel resin, HiTrap Q)
koff [2]: 0.0209 s⁻¹ | koff [3]: 0.000601 s⁻¹ | stoichiometry N (Nanobody C6 (alpaca)): 2 | stoichiometry N [4]: 1 | Kd [5]: ~25 nM
